T1: FcγRIIb (human, UniProt P31994 43-217)
T1 construct: extracellular domain; also called FcgRIIb; 2b; not shown: His tag at the C terminus
T1 sequence (looked up): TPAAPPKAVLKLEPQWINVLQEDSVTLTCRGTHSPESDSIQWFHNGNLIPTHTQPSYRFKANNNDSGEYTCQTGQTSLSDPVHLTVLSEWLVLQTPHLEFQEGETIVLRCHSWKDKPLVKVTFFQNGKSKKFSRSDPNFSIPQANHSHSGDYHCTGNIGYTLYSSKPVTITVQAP

T2: FcγRIIb (human, UniProt P31994 43-217)
T2 construct: extracellular domain; Soluble extracellular domain with C-terminal His tag, used as analyte in Biacore; also called FcgRIIb; 2b; not shown: His tag attached to the C terminus
T2 sequence (looked up): T1 sequence (looked up)

B1: GpH7-A5/GpH7-B3 variant D265_01G/GpL16-k0 (antibody, human IgG1, kappa)
heavy 1: not shown
heavy 2: not shown
light: DIVMTQSPLSLPVTPGEPASISCQASESLVHSNRNTYLHWYLQKPGQSPQLLIYKVSNRFSGVPDRFSGSGSGTDFTLKISRVEAEDVGVYYCSQNTHVPPTFGQGTKVEIERTVAAPSVFIFPPSDEQLKSGTASVVCLLNNFYPREAKVQWKVDNALQSGNSQESVTEQDSKDSTYSLSSTLTLSKADYEKHKVYACEVTHQGLSSPVTKSFNRGEC
notes: He Ab: mutation only in the GpH7-B3 H chain; EU numbering; also called He Ab
B2: GpH7-A5/GpH7-B3 variant D265_04F/GpL16-k0 (antibody, human IgG1, kappa)
heavy 1: not shown
heavy 2: not shown
light: B1 light
notes: as for B1
B3: GpH7-A5/GpH7-B3 variant D265_14T/GpL16-k0 (antibody, human IgG1, kappa)
heavy 1: not shown
heavy 2: not shown
light: B1 light
notes: as for B1
B4: GpH7-A5/GpH7-B3 variant S267_04F/GpL16-k0 (antibody, human IgG1, kappa)
heavy 1: not shown
heavy 2: not shown
light: B1 light
notes: as for B1
B5: GpH7-A5/GpH7-B3 variant D265_19Q/GpL16-k0 (antibody, human IgG1, kappa)
heavy 1: not shown
heavy 2: not shown
light: B1 light
notes: as for B1
B6: GpH7-A5/GpH7-B3 variant S239_20W/GpL16-k0 (antibody, human IgG1, kappa)
heavy 1: not shown
heavy 2: not shown
light: B1 light
notes: as for B1
B7: GpH7-A5/GpH7-B3 variant D265_18N/GpL16-k0 (antibody, human IgG1, kappa)
heavy 1: not shown
heavy 2: not shown
light: B1 light
notes: as for B1
B8: GpH7-A5/GpH7-B3 variant D265_08L/GpL16-k0 (antibody, human IgG1, kappa)
heavy 1: not shown
heavy 2: not shown
light: B1 light
notes: as for B1
B9: GpH7-A5/GpH7-B3 variant D265_15Y/GpL16-k0 (antibody, human IgG1, kappa)
heavy 1: not shown
heavy 2: not shown
light: B1 light
notes: as for B1
B10: GpH7-A5/GpH7-B3 variant D265_03V/GpL16-k0 (antibody, human IgG1, kappa)
heavy 1: not shown
heavy 2: not shown
light: B1 light
notes: as for B1
B11: GpH7-A5/GpH7-B3 variant H268_06M/GpL16-k0 (antibody, human IgG1, kappa)
heavy 1: not shown
heavy 2: not shown
light: B1 light
notes: as for B1
B12: GpH7-A5/GpH7-B3 variant D265_02A/GpL16-k0 (antibody, human IgG1, kappa)
heavy 1: not shown
heavy 2: not shown
light: B1 light
notes: as for B1
B13: GpH7-A5/GpH7-B3 variant D265_20W/GpL16-k0 (antibody, human IgG1, kappa)
heavy 1: not shown
heavy 2: not shown
light: B1 light
notes: as for B1
B14: GpH7-A5/GpH7-B3 variant D265_16H/GpL16-k0 (antibody, human IgG1, kappa)
heavy 1: not shown
heavy 2: not shown
light: B1 light
notes: as for B1
B15: GpH7-A5/GpH7-B3 variant D265_07I/GpL16-k0 (antibody, human IgG1, kappa)
heavy 1: not shown
heavy 2: not shown
light: B1 light
notes: as for B1
B16: GpH7-A5/GpH7-B3 variant D265_11K/GpL16-k0 (antibody, human IgG1, kappa)
heavy 1: not shown
heavy 2: not shown
light: B1 light
notes: as for B1
B17: GpH7-A5/GpH7-B3 variant D265_10E/GpL16-k0 (antibody, human IgG1, kappa)
heavy 1: not shown
heavy 2: not shown
light: B1 light
notes: as for B1
B18: GpH7-A5/GpH7-B3 variant D265_13S/GpL16-k0 (antibody, human IgG1, kappa)
heavy 1: not shown
heavy 2: not shown
light: B1 light
notes: as for B1
B19: GpH7-A5/GpH7-B3 variant S267_05P/GpL16-k0 (antibody, human IgG1, kappa)
heavy 1: not shown
heavy 2: not shown
light: B1 light
notes: as for B1
B20: GpH7-A5/GpH7-B3 variant D265_12R/GpL16-k0 (antibody, human IgG1, kappa)
heavy 1: not shown
heavy 2: not shown
light: B1 light
notes: as for B1
B21: GpH7-A5/GpH7-B3 variant D265_06M/GpL16-k0 (antibody, human IgG1, kappa)
heavy 1: not shown
heavy 2: not shown
light: B1 light
notes: as for B1
B22: GpH7-A5/GpH7-B3 variant S267_10E/GpL16-k0 (antibody, human IgG1, kappa)
heavy 1: not shown
heavy 2: not shown
light: B1 light
notes: Heterodimerized IgG1; mutation in the GpH7-B3 H chain only; also called He Ab
B23: GpH7-A5/GpH7-B3 variant V266_12R/GpL16-k0 (antibody, human IgG1, kappa)
heavy 1: not shown
heavy 2: not shown
light: B1 light
notes: as for B22
B24: GpH7-A5/GpH7-B3 variant S267_19Q/GpL16-k0 (antibody, human IgG1, kappa)
heavy 1: not shown
heavy 2: not shown
light: B1 light
notes: as for B22
B25: GpH7-A5/GpH7-B3 variant S267_03V/GpL16-k0 (antibody, human IgG1, kappa)
heavy 1: not shown
heavy 2: not shown
light: B1 light
notes: as for B22
B26: GpH7-A5/GpH7-B3 variant S267_09D/GpL16-k0 (antibody, human IgG1, kappa)
heavy 1: not shown
heavy 2: not shown
light: B1 light
notes: as for B22
B27: GpH7-A5/GpH7-B3 variant S267_06M/GpL16-k0 (antibody, human IgG1, kappa)
heavy 1: not shown
heavy 2: not shown
light: B1 light
notes: as for B22
B28: GpH7-A5/GpH7-B3 variant S239_09D/GpL16-k0 (antibody, human IgG1, kappa)
heavy 1: not shown
heavy 2: not shown
light: B1 light
notes: as for B22
B29: GpH7-A5/GpH7-B3 variant S267_02A/GpL16-k0 (antibody, human IgG1, kappa)
heavy 1: not shown
heavy 2: not shown
light: B1 light
notes: as for B22
B30: GpH7-A5/GpH7-B3 variant V266_06M/GpL16-k0 (antibody, human IgG1, kappa)
heavy 1: not shown
heavy 2: not shown
light: B1 light
notes: as for B22
B31: GpH7-A5/GpH7-B3 variant S239_08L/GpL16-k0 (antibody, human IgG1, kappa)
heavy 1: not shown
heavy 2: not shown
light: B1 light
notes: as for B22
B32: GpH7-A5/GpH7-B3 variant P238_15Y/GpL16-k0 (antibody, human IgG1, kappa)
heavy 1: not shown
heavy 2: not shown
light: B1 light
notes: as for B22
B33: GpH7-A5/GpH7-B3 variant V266_08L/GpL16-k0 (antibody, human IgG1, kappa)
heavy 1: not shown
heavy 2: not shown
light: B1 light
notes: as for B22
B34: GpH7-A5/GpH7-B3 variant S239_10E/GpL16-k0 (antibody, human IgG1, kappa)
heavy 1: not shown
heavy 2: not shown
light: B1 light
notes: as for B22
B35: GpH7-A5/GpH7-B3 variant S239_01G/GpL16-k0 (antibody, human IgG1, kappa)
heavy 1: not shown
heavy 2: not shown
light: B1 light
notes: as for B22
B36: GpH7-A5/GpH7-B3 variant P238_10E/GpL16-k0 (antibody, human IgG1, kappa)
heavy 1: not shown
heavy 2: not shown
light: B1 light
notes: as for B22
B37: GpH7-A5/GpH7-B3 variant V266_07I/GpL16-k0 (antibody, human IgG1, kappa)
heavy 1: not shown
heavy 2: not shown
light: B1 light
notes: as for B22
B38: GpH7-A5/GpH7-B3 variant P238_09D/GpL16-k0 (antibody, human IgG1, kappa)
heavy 1: not shown
heavy 2: not shown
light: B1 light
notes: as for B22
B39: GpH7-A5/GpH7-B3 variant S267_07I/GpL16-k0 (antibody, human IgG1, kappa)
heavy 1: not shown
heavy 2: not shown
light: B1 light
notes: as for B22

What follows are binders tested against T3, FcγRIa (human, UniProt P12314 16-292) (assay: SPR; He/Con_1a divided by He/Con_2b (FcγRIIb as reference)).
T3 construct: extracellular domain; also called FcgRI; 1a; not shown: His tag at the C terminus
T3 sequence (P12314 16-292): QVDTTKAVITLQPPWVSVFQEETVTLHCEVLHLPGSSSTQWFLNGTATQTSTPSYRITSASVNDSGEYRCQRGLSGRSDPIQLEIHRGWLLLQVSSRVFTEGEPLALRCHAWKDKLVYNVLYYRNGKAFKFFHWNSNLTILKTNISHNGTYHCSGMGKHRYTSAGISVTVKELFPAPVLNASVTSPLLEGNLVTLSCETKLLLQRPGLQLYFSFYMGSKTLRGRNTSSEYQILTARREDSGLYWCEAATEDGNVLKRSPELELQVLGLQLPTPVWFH

Ia/IIb He_1a/2b	Binder
4.95 ratio	B1
16.8 ratio	B2
4.9 ratio	B3
2.04 ratio	B4
2.66 ratio	B5
2.06 ratio	B6
4.52 ratio	B7
12.4 ratio	B8
73.5 ratio	B9
17.3 ratio	B10
1.59 ratio	B11
4.25 ratio	B12
45.6 ratio	B13
2.23 ratio	B14
41.2 ratio	B15
2.9 ratio	B16
2.66 ratio	B17
6.07 ratio	B18
2.91 ratio	B19
2.96 ratio	B20
7.57 ratio	B21

The binders below were run against T4, FcγRIa (human, UniProt P12314 16-292) (assay: SPR (Biacore); He/Con_1a divided by He/Con_2b (FcγRIa against FcγRIIb)).
T4 construct: extracellular domain; Soluble extracellular domain with C-terminal His tag, used as analyte in Biacore; also called FcgRI; 1a; not shown: His tag attached to the C terminus
T4 sequence (P12314 16-292): as above

Ia/IIb He_1a/2b	Binder
0.28 ratio	B22
-55.6 ratio	B23
0.47 ratio	B24
0.55 ratio	B25
0.35 ratio	B26
0.51 ratio	B27
0.49 ratio	B28
0.45 ratio	B29
0.4 ratio	B30
0.71 ratio	B31
0.46 ratio	B32
0.42 ratio	B33
0.58 ratio	B34
0.7 ratio	B35
0.44 ratio	B36
0.65 ratio	B37
0.43 ratio	B38
0.52 ratio	B39

The binders below were run against T3, FcγRIa (assay: SPR (Biacore), captured antibody, soluble FcγR; relative to GpH7-A5/GpH7-B3/GpL16-k0).

He/Con_1a	Binder
79.9 relative, HeCon Ab = 100	B1
53 relative, HeCon Ab = 100	B2
78.5 relative, HeCon Ab = 100	B3
97.7 relative, HeCon Ab = 100	B4
88.8 relative, HeCon Ab = 100	B5
92.7 relative, HeCon Ab = 100	B6
27.7 relative, HeCon Ab = 100	B7
56.8 relative, HeCon Ab = 100	B8
44.3 relative, HeCon Ab = 100	B9
55.7 relative, HeCon Ab = 100	B10
105 relative, HeCon Ab = 100	B11
84.5 relative, HeCon Ab = 100	B12
51.5 relative, HeCon Ab = 100	B13
85.4 relative, HeCon Ab = 100	B14
54.4 relative, HeCon Ab = 100	B15
43.2 relative, HeCon Ab = 100	B16
101 relative, HeCon Ab = 100	B17
68.7 relative, HeCon Ab = 100	B18
91.8 relative, HeCon Ab = 100	B19
44.3 relative, HeCon Ab = 100	B20
75.7 relative, HeCon Ab = 100	B21

The binders below were run against T1, FcγRIIb in the same assay as above.

He/Con_2b	Binder
16.1 relative, HeCon Ab = 100	B1
3.2 relative, HeCon Ab = 100	B2
16 relative, HeCon Ab = 100	B3
48 relative, HeCon Ab = 100	B4
33.4 relative, HeCon Ab = 100	B5
45.1 relative, HeCon Ab = 100	B6
6.1 relative, HeCon Ab = 100	B7
4.6 relative, HeCon Ab = 100	B8
0.6 relative, HeCon Ab = 100	B9
3.2 relative, HeCon Ab = 100	B10
65.7 relative, HeCon Ab = 100	B11
19.9 relative, HeCon Ab = 100	B12
1.1 relative, HeCon Ab = 100	B13
38.3 relative, HeCon Ab = 100	B14
1.3 relative, HeCon Ab = 100	B15
14.9 relative, HeCon Ab = 100	B16
38.2 relative, HeCon Ab = 100	B17
11.3 relative, HeCon Ab = 100	B18
31.5 relative, HeCon Ab = 100	B19
15 relative, HeCon Ab = 100	B20
10 relative, HeCon Ab = 100	B21

What follows are binders tested against T4, FcγRIa (assay: SPR (Biacore), antibody captured on antigen peptide, FcγR as analyte; relative to GpH7-A5/GpH7-B3/GpL16-k0 = 100).

He/Con_1a	Binder
106 % of control	B22
59.2 % of control	B23
102 % of control	B24
106 % of control	B25
110 % of control	B26
106 % of control	B27
101 % of control	B28
109 % of control	B29
99.7 % of control	B30
99.8 % of control	B31
101 % of control	B32
98.1 % of control	B33
105 % of control	B34
101 % of control	B35
102 % of control	B36
99.3 % of control	B37
96 % of control	B38
100 % of control	B39

The binders below were run against T2, FcγRIIb in the same assay as above.

He/Con_2b	Binder
379 % of control	B22
-1.1 % of control	B23
218 % of control	B24
192 % of control	B25
310 % of control	B26
210 % of control	B27
206 % of control	B28
243 % of control	B29
251 % of control	B30
140 % of control	B31
218 % of control	B32
236 % of control	B33
181 % of control	B34
144 % of control	B35
232 % of control	B36
152 % of control	B37
221 % of control	B38
192 % of control	B39
